# Measured values from patent publication US9878137B2, “Bioactive agent delivery devices and methods of making and using the same” (The Regents of the University of California, priority 2012, dated 2018).
# Assay: In vitro drug permeation studies across caco-2 monolayer on Transwell inserts
# Type: in vitro ADME, Human
# Conditions: PEGDMA 15% Texas red-BSA, 30% FITC-BSA, 45% DNP-BSA reservoirs of same device; FIG. 6
# Protocol: In vitro drug permeation studies. The drug loaded microdevices were released within 2 min from the wafers using 8 M potassium hydroxide (KOH) solution that was preheated to 40° C. The released microdevices being less dense than water was ultracentrifuged (30 kDa Amicon ultra centrifugal filters) and washed with PBS twice for release and permeation studies. Human colorectal adenocarcinoma epithelial cells (caco-2 ATCC) were grown to confluency (transepithelial electrical resistance plateau at 900-1000Ω) on 50% collagen-ethanol (Type 1, Becton Dickinson, Franklin Lakes, N.J.) treated 24-well Transwell® inserts. The caco-2 cells were maintained in Modified Eagle's Media (MEM) with 20% fetal bovine serum (Invitrogen), 2 mM L-glutamine, 1.5 g/L sodium bicarbonate, 2.5 g/L glucose, 10 mM HEPES buffer, 1.0 mM sodium pyruvate, and 1 mg/mL penicillin/streptomycin for 5 days or more prior to seeding. […] Discrete time (20 min) samples were taken from both the upper and lower chamber of the Transwell® for the different drug loaded systems and observed for fluorescence using a Packard Fluorocount Microplate Fluorometer (Meriden, Conn.).
# To measure the drug elution kinetics of the various microdevices, release of the different fluorophore tagged BSAs were monitored, in vitro, from hydrogel laden microdevices. […]
substance,measurement,value
"Texas red-BSA: fluorescently labeled bovine serum albumin, model fluorophore-drug",relative release rate at different crosslinking ratio,released faster than FITC-BSA
"FITC-BSA: fluorescently labeled bovine serum albumin, model fluorophore-drug",relative release rate at different crosslinking ratio,released faster than DNP-BSA
